Measured values reported in the Human Domainome abundance scans (Beltran et al. 2025).
± gives the uncertainty stated by the source.

B1: Proto-oncogene vav, residues 782 to 842; numbered along this chain, P15498 (parent)
chain: KYFGTAKARYDFCARDRSELSLKEGDIIKILNKKGQQGWWRGEIYGRVGWFPANYVEEDYS

Variants of: B1
Experiment: abundance fitness (aPCA) (normalised: wild type 0, dead -1); higher = more abundant; growth selection in yeast, the domain comes from the species named
Details: Homo sapiens

Abundance fitness, by site and new letter:
G25: V -1.21 ± 0.32; W -0.498 ± 0.1; Y -1.02 ± 0.41
D26: A -0.493 ± 0.1; C -0.737 ± 0.26; E -0.172 ± 0.074; G -0.948 ± 0.17; H -0.941 ± 0.31; I -0.663 ± 0.29; K -0.964 ± 0.3; L -0.814 ± 0.13; M -0.401 ± 0.14; N -0.45 ± 0.1; P -1.15 ± 0.41; Q -0.278 ± 0.13; R -0.996 ± 0.19; T -0.777 ± 0.21; V -0.559 ± 0.072; W -0.8 ± 0.21; Y -0.472 ± 0.18
I27: A -0.331 ± 0.091; C -0.194 ± 0.085; D -0.151 ± 0.15; E -0.154 ± 0.091; F -0.44 ± 0.23; G -0.704 ± 0.093; H -0.14 ± 0.14; K -0.22 ± 0.13; L -0.198 ± 0.076; M -0.192 ± 0.12; P -0.557 ± 0.23; R -0.21 ± 0.076; S -0.276 ± 0.079; V 0.065 ± 0.07; W -0.324 ± 0.12; Y -0.294 ± 0.14
I28: A -0.662 ± 0.17; C -0.436 ± 0.21; D -0.944 ± 0.35; F -0.816 ± 0.29; G -0.935 ± 0.2; L -0.412 ± 0.11; M -0.593 ± 0.22; P -0.811 ± 0.38; Q -0.834 ± 0.37; R -1.11 ± 0.28; S -0.792 ± 0.29; T -0.315 ± 0.17; V 0.039 ± 0.06; W -0.591 ± 0.13
K29: A -0.225 ± 0.089; C -0.467 ± 0.14; D -0.229 ± 0.23; E -0.493 ± 0.12; F -0.483 ± 0.12; G -0.281 ± 0.088; H -0.082 ± 0.11; I -0.391 ± 0.15; L -0.068 ± 0.053; M -0.095 ± 0.099; N -0.033 ± 0.1; P -0.462 ± 0.14; Q -0.265 ± 0.1; S -0.092 ± 0.069; T -0.103 ± 0.088; V -0.376 ± 0.074; W -0.4 ± 0.1; Y -0.217 ± 0.18
I30: A -0.552 ± 0.12; E -0.876 ± 0.46; F -0.776 ± 0.38; G -0.675 ± 0.11; L -0.319 ± 0.055; M -0.555 ± 0.15; N -0.77 ± 0.33; P -0.814 ± 0.26; Q -0.833 ± 0.29; R -0.634 ± 0.093; S -0.662 ± 0.12; V 0.006 ± 0.075; W -0.871 ± 0.16; Y -0.74 ± 0.25
L31: A -0.816 ± 0.16; C -0.412 ± 0.23; D -0.415 ± 0.24; E -0.644 ± 0.32; F -0.46 ± 0.22; G -0.773 ± 0.13; H -0.285 ± 0.16; I -0.004 ± 0.1; K -0.392 ± 0.13; M -0.366 ± 0.11; N -0.649 ± 0.18; P -0.988 ± 0.42; Q -0.525 ± 0.25; R -0.461 ± 0.094; S -0.618 ± 0.11; T -0.133 ± 0.085; V -0.285 ± 0.092; W -0.251 ± 0.11; Y -0.188 ± 0.17
N32: A -0.031 ± 0.075; D 0.162 ± 0.098; E 0.123 ± 0.11; F -0.118 ± 0.092; G -0.075 ± 0.07; H -0.02 ± 0.15; I -0.363 ± 0.22; K -0.221 ± 0.12; L -0.292 ± 0.066; M -0.242 ± 0.11; Q 0.009 ± 0.12; R -0.255 ± 0.063; S 0.082 ± 0.062; T -0.131 ± 0.1; V -0.223 ± 0.078; Y -0.168 ± 0.17
K33: A -0.711 ± 0.12; C -0.732 ± 0.17; D -0.743 ± 0.2; E -0.46 ± 0.15; F -0.593 ± 0.14; G -0.734 ± 0.11; H -0.68 ± 0.35; I -0.44 ± 0.15; L -0.929 ± 0.16; M -0.804 ± 0.23; N -0.681 ± 0.2; P -0.41 ± 0.12; Q -0.478 ± 0.19; R -0.089 ± 0.051; S -0.576 ± 0.092; T -0.377 ± 0.11; V -0.41 ± 0.068; W -0.693 ± 0.11; Y -0.475 ± 0.12
K34: A -0.013 ± 0.077; C -0.117 ± 0.11; D -0.054 ± 0.17; E 0.068 ± 0.1; F -0.363 ± 0.31; G -0.051 ± 0.07; H -0.03 ± 0.11; I -0.424 ± 0.17; L -0.268 ± 0.065; M -0.22 ± 0.1; N 0.068 ± 0.15; P -0.165 ± 0.079; Q 0.031 ± 0.072; R 0.019 ± 0.043; S -0.05 ± 0.085; T -0.158 ± 0.094; V -0.072 ± 0.075; Y -0.216 ± 0.16
G35: A -0.346 ± 0.086; C -0.165 ± 0.093; D -0.155 ± 0.08; E -0.165 ± 0.072; H -0.428 ± 0.13; I -0.334 ± 0.15; K -0.204 ± 0.11; L -0.469 ± 0.075; M -0.324 ± 0.15; N -0.327 ± 0.24; P -0.23 ± 0.12; Q -0.304 ± 0.13; R -0.287 ± 0.064; S -0.104 ± 0.07; T -0.16 ± 0.11; V -0.412 ± 0.076; W -0.6 ± 0.12; Y -0.643 ± 0.14
Q36: A -0.07 ± 0.094; C -0.258 ± 0.13; D -0.073 ± 0.18; E -0.005 ± 0.077; F -0.166 ± 0.15; G -0.192 ± 0.066; H 0.016 ± 0.15; I -0.084 ± 0.11; K 0.132 ± 0.1; L -0.045 ± 0.064; M 0.055 ± 0.085; N -0.248 ± 0.22; P 0.074 ± 0.092; S -0.195 ± 0.084; T -0.076 ± 0.088; W -0.156 ± 0.094; Y -0.219 ± 0.11
Q37: A -0.044 ± 0.075; C -0.02 ± 0.097; D -0.008 ± 0.12; E 0.033 ± 0.12; F -0.186 ± 0.094; G 0.029 ± 0.11; H 0.037 ± 0.11; I -0.292 ± 0.14; K -0.022 ± 0.22; L -0.106 ± 0.056; M -0.105 ± 0.12; N -0.086 ± 0.22; P 0.039 ± 0.088; R -0.048 ± 0.063; S 0.02 ± 0.071; T -0.135 ± 0.11; V -0.024 ± 0.069; W -0.189 ± 0.12; Y 0.048 ± 0.11
G38: A -0.619 ± 0.12; C -0.725 ± 0.23; D -0.265 ± 0.11; E -0.438 ± 0.17; F -0.82 ± 0.29; H -0.418 ± 0.18; I -0.911 ± 0.25; K -0.248 ± 0.18; L -0.55 ± 0.11; M -0.795 ± 0.23; N -0.309 ± 0.16; P -0.944 ± 0.25; Q -0.186 ± 0.14; R -0.539 ± 0.11; T -0.69 ± 0.14; V -0.51 ± 0.1; W -0.928 ± 0.31
W39: A -0.614 ± 0.15; E -0.795 ± 0.27; F -0.354 ± 0.097; G -0.978 ± 0.17; H -0.513 ± 0.2; I -0.408 ± 0.098; L -0.268 ± 0.055; M -0.028 ± 0.07; N -0.674 ± 0.15; P -0.807 ± 0.12; Q -0.317 ± 0.079; R -0.241 ± 0.049; S -0.599 ± 0.08; T -0.385 ± 0.078
W40: A -1.13 ± 0.26; C -0.833 ± 0.23; D -0.747 ± 0.23; E -0.924 ± 0.28; F -0.303 ± 0.21; G -0.707 ± 0.084; I -0.385 ± 0.24; K -0.362 ± 0.35; L -0.306 ± 0.077; M -0.428 ± 0.14; P -0.876 ± 0.46; Q -0.876 ± 0.46; R -0.948 ± 0.19; S -0.785 ± 0.14; V -0.648 ± 0.083; Y -0.182 ± 0.14
R41: A -0.364 ± 0.07; C -0.002 ± 0.098; E 0.018 ± 0.085; F 0.081 ± 0.091; G -0.691 ± 0.11; H -0.113 ± 0.12; I -0.463 ± 0.12; K 0.008 ± 0.08; L 0.031 ± 0.049; M 0.024 ± 0.078; N -0.375 ± 0.15; P -0.588 ± 0.14; Q 0.129 ± 0.073; S -0.359 ± 0.084; T -0.633 ± 0.13; W -0.123 ± 0.12
G42: A -0.523 ± 0.11; D -0.385 ± 0.21; E -0.809 ± 0.26; F -1.02 ± 0.4; I -0.832 ± 0.33; L -0.788 ± 0.11; M -0.748 ± 0.15; P -0.916 ± 0.26; Q -0.963 ± 0.35; R -0.398 ± 0.081; S -0.787 ± 0.12; T -0.825 ± 0.16; V -0.837 ± 0.14; Y -0.618 ± 0.26
E43: A -0.197 ± 0.086; C -0.343 ± 0.1; D -0.559 ± 0.17; F -0.825 ± 0.47; G -0.702 ± 0.12; H -0.993 ± 0.42; K -0.155 ± 0.14; L -0.525 ± 0.086; M -0.389 ± 0.12; N -0.36 ± 0.17; Q -0.019 ± 0.12; R -0.31 ± 0.076; S -0.126 ± 0.07; T -0.367 ± 0.084; V -0.411 ± 0.073; W -0.782 ± 0.16; Y -0.682 ± 0.16
I44: A 0.062 ± 0.069; C 0.042 ± 0.087; D -0.486 ± 0.16; F -0.257 ± 0.24; G -0.619 ± 0.096; H -0.025 ± 0.21; K -0.239 ± 0.16; L 0.089 ± 0.075; M -0.292 ± 0.1; N 0.085 ± 0.17; P -0.556 ± 0.14; Q -0.484 ± 0.16; R -0.145 ± 0.062; T -0.027 ± 0.095; V 0.044 ± 0.062; W -0.556 ± 0.12; Y -0.425 ± 0.17
Y45: A 0.106 ± 0.056; D 0.147 ± 0.079; E 0.103 ± 0.065; F 0.085 ± 0.17; G 0.125 ± 0.044; H 0.135 ± 0.15; K 0.115 ± 0.065; L 0.036 ± 0.043; M 0.1 ± 0.06; N 0.081 ± 0.074; P -0.211 ± 0.072; Q 0.169 ± 0.066; S 0.164 ± 0.047; T -0.021 ± 0.053; V -0.074 ± 0.052
